Here are results for 14 molecules from patent US20250313612A1 (Adimab, published 2025).

The target in test [1] is RSV F protein of recombinant mKate-RSV, subtype B (18537) (Respiratory syncytial virus subtype B …, UniProt P13843 26-574). Description: cell-based or functional assay.
Test [2] concerns the target RSV F protein of recombinant mKate-RSV, subtype A (strain A2) (Respiratory syncytial virus subtype A …, UniProt P03420 26-574). Briefly: cell-based or functional assay.

B1: ADI-14518 (antibody, V domains shown)
VH: QVQLVQSGPEVKKPGASVRVSCKTSGFTLSHYGVSWLRQAPGHGLEWLGWISAYNYNTQFGHRMEGRLTMTTDTSTAYMDLTSLTSDDTAIYYCARDSPSDTAAALLDFWGQGTLVTVSS
VL: DIVLTQSPLSLPVTLGQPASISCRSSQSLVYSDGNTYLSWFQQRPGQAPRRLIYKISNRDSGVPDRFSGSGSGTDFTLKISRVEAEDVGIYYCMQATHWPRLSFGGGTKVEIK
Consider B1, for which the “Neut IC50 subtype B” value in test [1] was 0.032 µg/mL. In addition, in test [2], the “Neut IC50 subtype A” value was found to be 0.019 µg/mL.

B2: ADI-14496 (antibody, V domains shown)
VH: QVQLVQSGAEVKKPGESLKISCQGSGYSFRSYWIGWVRQKPGKGLEYMGIIFPNDFDTRYSPSFQGQVTISVDKSTSTAFLQWTSLQASDTAIYYCGRQELQGSFTIWGQGTMVTVTS
VL: DIVMTQSPSSLSASVGDRVTITCQASQDMGNSLNWYQQKSGKAPKLLIYDASYLDSGVPSRFSGSGSGTHFTFTISTLQPEDIATYYCQHYDNLLLFTFGPGTKLEIK
In the case of B2, the “Neut IC50 subtype B” value in test [1] was > 10 µg/mL. For the same molecule, the “Neut IC50 subtype A” value in test [2] amounted to 0.006 µg/mL.

B3: ADI-14444 (antibody, V domains shown)
VH: QVQLVQSGPDVKRPGASVRVSCKASGYTFSDYYMHWVRQAPGQGLEWLAWVNPSTGATHYSESFRGSMVVQRDTSTDTAYLELSSLKSDDTAVYYCARIGSNEIWGQGTMVTVSS
VL: QSALTQPASVSGSPGQSITISCAGTSSDIGGWNYVSWYQQYPGQVPKLILYEVTDRPSGVSHRFSGSKSGNRAFLTITGLRAEDEADYYCCSFTSSGSRVFGGGTKVTVL
On to B3, for which the “Neut IC50 subtype B” value in test [1] was > 10 µg/mL. Moreover, the “Neut IC50 subtype A” value in test [2] was > 10 µg/mL.

B4: ADI-14515 (antibody, V domains shown)
VH: QVQLVQSGGGVVQPGSSLRLSCSASGFTFMTYGMHWARQAPGKGLEWVADISFDANKKYYRDSVKGRFTISRDNSKNTVYLQMNSLRPEDTAVYFCARNTIFGVVDYWGQGTLVTVSS
VL: EIVLTQSPATLSVSPGERATLSCRASQSVSANLAWYQHKPGQAPRLLIYGASTRASDIPARFSGSGSGTEFTLTISSLQSEDSAVYYCQQYNNWPPWTFGQGTKVEIK
On to B4, for which, in test [1], the “Neut IC50 subtype B” value was 0.049 µg/mL. In test [2], the “Neut IC50 subtype A” value turned out to be 0.051 µg/mL.

B5: ADI-14442 (antibody, V domains shown)
VH: QVQLVQSGSEVKKPGASVKVSCKASGYRFSNYGISWVRQAPGQGLEWMGWISAYNGNIKYGNNLQGRVTVTTDTSTATAYMEVRSLTSDDTAVYYCARDVPADGVHFMDVWGQGTLVTVSS
VL: EIVMTQSPLSLPVTLGQPASISCRSSQSLVHSDTNTYLNWFQQRPGQSPRRLIYKVSNRDSGVPDRFSGSGSGTTFTLKISRVEAEDVGIYYCMQGSHWAPTFGQGTKVEIK
As for B5, the “Neut IC50 subtype B” value in test [1] was determined as 0.015 µg/mL. For the same molecule, the “Neut IC50 subtype A” value in test [2] was 0.002 µg/mL.

B6: ADI-14509 (antibody, V domains shown)
VH: QVQLVQSGSEVKKPGASVTLSCKASGYRFSNYGVSWVRQAPGQGLEWMGWISGYNGNIKYGNSLQGRVTLTTDTTTAYMEVTSLTSDDTAVYYCARDVPADGVHFMDVWGKGTTVTVSS
VL: EIVLTQSPLSLPVTLGQPASISCRSSQSLVHSDTNTYLTWFQQRPGQSPRRLIYKVSHRDSGVPDRFSGSGSGTTFTLKIARVEAEDVGIYYCMEGSHWAPTFGQGTKVDIK
B6: in test [1], the “Neut IC50 subtype B” value stood at 0.016 µg/mL. In addition, the “Neut IC50 subtype A” value in test [2] stood at 0.011 µg/mL.

B7: ADI-14489 (antibody, V domains shown)
VH: QVQLVQSGSEVKKPGASVKVSCKASGYRFSNYGISWVRQAPGQGLEWMGWISAYNGNIKYGNNLQGRVTVTTDTSTTTAYMEVRSLTSDDTAVYYCARDVPADGVHFMDVWGKGTTVTVSS
VL: DIVMTQTPLSLPVTLGQPASISCRSSQSLVHSDTNTYLNWFQQRPGQSPRRLIYKVSNRDSGVPDRFSGSGSGTTFTLKISRVEAEDVGIYYCMQGSHWAPTFGQGTKVEIK
On to B7, for which the “Neut IC50 subtype B” value in test [1] stood at 0.021 µg/mL. Besides, the “Neut IC50 subtype A” value in test [2] worked out at 0.023 µg/mL.

B8: ADI-14514 (antibody, V domains shown)
VH: QVQLVQSGSEVKKPGASVTVSCKASGYRFSNYGVSWVRQAPGQGLEWMGWISAYNGNTKYGNSLQGRVTLTTDTTTAYMEVRSLTSDDTAVYYCARDVPGDGVHFMDVWGKGTTVTVSS
VL: EIVMTQSPLSLPVTLGQSASISCRSSQSLVHSDTNTYLTWFQQRPGQSPRRLIYKVSHRDSGVPDRFSGSGSGTTFTLKISRVEAEDVGIYYCMEGSHWAPTFGQGTKVEIK
Consider B8, for which the “Neut IC50 subtype B” value in test [1] is 0.074 µg/mL. Further, the “Neut IC50 subtype A” value in test [2] came out at 0.046 µg/mL.

B9: ADI-14505 (antibody, V domains shown)
VH: QVQLVQSGAEVKKPGASVKVSCKASGNSFNDFYMHWVRQAPGQGLEWMGWIDPNNGGANYAQKFHGRVTMTRDSSINTAYMELSRLRSDDTAVYYCASEPPGVGFGLIPHYYFDNWGQGTLVTVSS
VL: EIVMTQSPDSLAVSLGERATINCKSSQNVLDTSNNKNYLAWYQQKPGQPPRLLIYWASARGSGVPDRFSGSGSGTHFTLTISSLQAEDVAVYYCQQYFSIPPTFGQGTKVEIK
Regarding B9, the “Neut IC50 subtype B” value in test [1] turned out to be 0.018 µg/mL. Moreover, the “Neut IC50 subtype A” value in test [2] is 0.065 µg/mL.

B10: ADI-14502 (antibody, V domains shown)
VH: QVQLVQSGAEVKKPGSSVKVSCKASGDTFSMYAISWVRQAPGQGLEWMGGVLPMLGTSNYAQQFRGRVTITADGSTSTAYMEMSNLRFEDTAVYYCARVAGLGNSYGRYFDVWGQGTLVTVSS
VL: DIRMTQSPSSVSASIGDRVTITCRASQDISTSLAWYQQRPGKAPNLLIYAASTLHSGVPSRFRGSESGPDFTLTISSLQPEDVGTYYCQQAKSFPYTFGQGTKLEIK
As for B10, the “Neut IC50 subtype B” value in test [1] was determined as 2.72 µg/mL. For the same molecule, the “Neut IC50 subtype A” value in test [2] was > 10 µg/mL.

B11: ADI-14508 (antibody, V domains shown)
VH: QVQLVQSGTEVKKPGASVKVSCKGSGYMFANFGVSWVRQAPGRGLEWIGWISAYNGNTYYGREQGRFTMTTDTNTAYLELTSLRYDDTALYFCARDSGATAAGILWDYWGQGTLVTVSS
VL: EIVMTQSPLSLPVTLGQPASISCRSSQSLAYTDGSTYLNWFHQRPGQSPRRLIYKVFNRDSGVPDRFSGSGAGTDFTLTISRVEAEDVGVYYCMQATHWPRTFGQGTKVDIK
As to B11, the “Neut IC50 subtype B” value in test [1] was 0.057 µg/mL. Moreover, the “Neut IC50 subtype A” value in test [2] amounted to 0.029 µg/mL.

B12: ADI-14493 (antibody, V domains shown)
VH: QVQLQQWGTGLVKPSETLSLTCAVSGGAFSGHQWNWFRQPPGKGLEWIGEINVSGNTHYNVSLRSRVTISLDESKKQFSLKMTSVTAADTAIYYCAKASSGSYHFEYWFDPWSQGTMVTVSS
VL: SYELTQPPSVSVAPGKMAWFTCGGSDIGSKRVHWYQQKPGQAPVLLVYDDSLRPSGTSARVSGSTSGNTATLSIISVEAGDEADYFCQVWDDADDHAVFGGGTKLTVL
As for B12, the “Neut IC50 subtype B” value in test [1] stood at 1.27 µg/mL. In test [2], the “Neut IC50 subtype A” value was 0.009 µg/mL.

B13: ADI-14516 (antibody, V domains shown)
VH: QVQLVQSGVEVKKPGASVKVSCKTSGYTFSNYGVTWVRQAPGQGLEYMGWISAYNGNTNYAQNVQGRLTMTTDTSTSTGYMELRRLTSDDTAVYFCARDKGVTVAGSLLDYWGQGTLVTVSS
VL: EIVMTQSPLSLPVTLGQPASISCRSSQSLEHSDGNTYLNWFQQRPGQSPRRLIYKVSNRDSGVPDRFSGSGSGTDFTLKINRVEAEDVGVYYCMESTHWPPYTFGQGTKVEIK
For the molecule B13, in test [1], the “Neut IC50 subtype B” value was 0.047 µg/mL. Also, the “Neut IC50 subtype A” value in test [2] amounted to 0.018 µg/mL.

B14: ADI-14501 (antibody, V domains shown)
VH: QVQLVQSGAEVKKPGSSVKISCKASGGTFKSQAIHWVRQAPGQGLEWMGNIIPTYGSPNFAQRFLGRVTFIADDSTGAASMDLYRLTSEDTAVYYCATAGWFGELVRFDSWGQGTLVTVSS
VL: DIVMTQSPATLSVSPGERATLSCRATESISSNLAWYQQKPGQAPRLLIYGASTRATGIPARFSGSGSGTEFTLTINSLQSEDFAVYYCQQYNNWPPLTFGGGTKVDIK
As for B14, the “Neut IC50 subtype B” value in test [1] amounted to 2.29 µg/mL. Also, the “Neut IC50 subtype A” value in test [2] was 12.3 µg/mL.
